Results: patent US20220213181A1 (Novartis, published 2022)

Tests used:
[1] = target: T1, Human ANGPTL3(17-460)-FLAG-His-Avi (human, UniProt Q9Y5C1 17-460, biotin on the C-terminal Avi tag (BirA)); experiment: Octet (ForteBio) kinetics; average KD of the runs; no binding at 25 nM
T1 construct: also called full length human ANGPTL3; hANGPTL3
T1 sequence: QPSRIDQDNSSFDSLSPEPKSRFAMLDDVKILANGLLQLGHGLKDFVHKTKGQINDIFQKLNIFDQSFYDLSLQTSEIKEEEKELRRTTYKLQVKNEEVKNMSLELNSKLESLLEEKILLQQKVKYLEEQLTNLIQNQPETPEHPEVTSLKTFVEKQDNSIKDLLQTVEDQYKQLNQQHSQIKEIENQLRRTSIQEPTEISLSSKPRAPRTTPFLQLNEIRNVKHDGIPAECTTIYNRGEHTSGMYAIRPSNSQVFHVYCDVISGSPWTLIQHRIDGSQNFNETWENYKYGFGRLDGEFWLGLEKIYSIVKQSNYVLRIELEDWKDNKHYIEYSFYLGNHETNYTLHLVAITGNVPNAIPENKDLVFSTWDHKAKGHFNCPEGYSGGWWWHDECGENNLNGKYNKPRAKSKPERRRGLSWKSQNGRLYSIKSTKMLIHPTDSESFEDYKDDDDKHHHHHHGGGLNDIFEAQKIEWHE

[2] = target: T1, Human ANGPTL3(17-460)-FLAG-His-Avi; experiment: Octet (ForteBio) kinetics, biotinylated antigen on streptavidin sensor, IgG in solution; no binding at 25 nM
[3] = target: T2, Mouse ANGPTL4(26-410)-FLAG-His6-Avi (mouse, UniProt Q9Z1P8 24-410, biotin on the C-terminal Avi tag (BirA) where the protein is immobilised); experiment: Octet (ForteBio) kinetics, biotinylated antigen on streptavidin sensor, IgG in solution; Octet kinetics, mouse ANGPTL4 on the sensor, antibody up to 25 nM; run 1
T2 sequence: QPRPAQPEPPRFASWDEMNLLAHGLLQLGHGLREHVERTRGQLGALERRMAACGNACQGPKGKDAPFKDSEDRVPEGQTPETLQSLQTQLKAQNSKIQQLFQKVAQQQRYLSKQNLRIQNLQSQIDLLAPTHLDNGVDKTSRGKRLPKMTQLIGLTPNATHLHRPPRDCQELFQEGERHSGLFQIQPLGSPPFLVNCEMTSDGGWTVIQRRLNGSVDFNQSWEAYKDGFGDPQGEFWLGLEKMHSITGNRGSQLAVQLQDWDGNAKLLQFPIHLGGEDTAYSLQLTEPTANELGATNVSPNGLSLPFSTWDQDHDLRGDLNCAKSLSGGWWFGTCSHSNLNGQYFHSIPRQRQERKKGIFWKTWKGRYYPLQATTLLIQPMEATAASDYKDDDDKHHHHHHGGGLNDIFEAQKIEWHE

[4] = target: T3, Rat ANGPTL4(24-405)-FLAG-His6-Avi (rat, UniProt Q6TMA8 24-405, biotin on the C-terminal Avi tag (BirA) where the protein is immobilised); experiment: Octet (ForteBio) kinetics; average KD of the runs; Octet kinetics; average KD of the three rat runs
T3 sequence: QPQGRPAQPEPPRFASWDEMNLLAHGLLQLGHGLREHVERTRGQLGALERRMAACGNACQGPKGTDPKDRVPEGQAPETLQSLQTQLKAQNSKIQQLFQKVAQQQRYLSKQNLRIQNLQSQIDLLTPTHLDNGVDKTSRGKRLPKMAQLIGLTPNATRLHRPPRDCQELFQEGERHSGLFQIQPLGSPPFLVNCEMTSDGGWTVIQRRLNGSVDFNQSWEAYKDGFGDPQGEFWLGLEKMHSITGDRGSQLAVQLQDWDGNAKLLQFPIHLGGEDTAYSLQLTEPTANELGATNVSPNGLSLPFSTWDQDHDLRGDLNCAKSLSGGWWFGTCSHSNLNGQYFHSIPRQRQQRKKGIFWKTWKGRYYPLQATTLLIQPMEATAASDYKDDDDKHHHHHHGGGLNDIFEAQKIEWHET

[5] = target: T4, Human ANGPTL4(26-406)-FLAG-His6-Avi (human, UniProt Q9BY76 24-406, biotin on the C-terminal Avi tag (BirA) where the protein is immobilised); experiment: Octet (ForteBio) kinetics, biotinylated antigen on streptavidin sensor, IgG in solution; upper limit by the footnote
T4 construct: the text calls it 20 amino acids), then QP, ANGPTL4 26-406 and FLAG-His6-Avi; the signal peptide is left out here; also called full length human ANGPTL4; hANGPTL4
T4 sequence: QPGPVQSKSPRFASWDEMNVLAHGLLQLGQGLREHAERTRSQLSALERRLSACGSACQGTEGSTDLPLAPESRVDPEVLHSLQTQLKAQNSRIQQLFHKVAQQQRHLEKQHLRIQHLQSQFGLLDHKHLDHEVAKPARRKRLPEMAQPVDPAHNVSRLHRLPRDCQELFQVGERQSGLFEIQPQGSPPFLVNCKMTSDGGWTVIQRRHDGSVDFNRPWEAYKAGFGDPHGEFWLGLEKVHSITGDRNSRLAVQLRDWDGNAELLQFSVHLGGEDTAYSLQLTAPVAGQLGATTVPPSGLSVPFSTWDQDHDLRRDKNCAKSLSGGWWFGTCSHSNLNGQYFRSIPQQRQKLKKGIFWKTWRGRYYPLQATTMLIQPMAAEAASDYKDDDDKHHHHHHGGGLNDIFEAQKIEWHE
Description: Dissociation constants (KD) were determined for selected antibodies of the invention by using an Octet (ForteBio) kinetic binding assay. ForteBio 10× Kinetics Buffer (ForteBio, catalog number 18-5032) was diluted 10-fold with DPBS (Life Technologies, catalog number 14190-136), and the resulting solution was added (0.2 ml per well) to a 96-well plate (Greiner, catalog number 65520). Streptavidin sensors (ForteBio, catalog number 18-5020) were immersed in the solution and equilibrated for at least 10 min at room temperature. In a second 96-well plate (Greiner, catalog number 65520), sensors were washed in 1× Kinetics buffer, and then immersed in 200 ul of 25 nM biotinylated human ANGPTL4 or a biotinylated reference protein (for background subtraction) for 1000 sec at […] room temperature. […] The sensors were then transferred to a well containing 200 μl 1× Kinetics buffer, and antibody dissociation was monitored for 1200 seconds. Background-corrected association and dissociation curves were globally fitted by Octet Software (ForteBio) to generate association (kₐ) and dissociation (kd) rate constants, which in turn were used to calculate equilibrium dissociation constants (KD).

Binder	Kd [1] [nM]	Kd [2] [nM]	Kd [3] [nM]	koff [3] [s⁻¹]	kon [3] [M⁻¹ s⁻¹]	Kd [4] [nM]	Kd [5] [nM]
NEG276-LALA (antibody, human IgG1, kappa, L234A L235A) heavy: not shown light: EIVMTQSPATLSVSPGERATLSCKASQDIGSNLNWLQQKPGQAPRRLIYAVSNRGPGIPARFSGSRSGSEYTLTISSLQSEDFAVYYCLQYASSPWTFGQGTKVEIKRTVAAPSVFIFPPSDEQLKSGTASVVCLLNNFYPREAKVQWKVDNALQSGNSQESVTEQDSKDSTYSLSSTLTLSKADYEKHKVYACEVTHQGLSSPVTKSFNRGEC	> 6	> 6	8.25	0.0029	360000	6.34	
NEG278 (antibody, human IgG1, kappa, V domains shown, humanized, hIgG1/kappa, parental antibody 19C16) VH: QVQLVQSGAEVKKPGASVKVSCKASAYTFTSSWMQWVRQAPGQGLEWMGEIDPSDNYANYNQKFQGRVTLTVDTSTSTAYMELSSLRSEDTAVYYCASGSYFSNFFDYWGQGTLVTVSS VL: EIVMTQSPATLSVSPGERATLSCKASQDIGSNLNWLQQKPGQAPRRLIYAASVREPGIPARFSGSRSGSEYTLTISSLQSEDFAVYYCLQYASSPWTFGQGTKVEIKR							≤ 0.017
